Source: patent US20240325564A1, “PHARMACEUTICAL COMPOSITION CONTAINING ANTI-TROP2 ANTIBODY DRUG CONJUGATE AND ITS APPLICATION” (JIANGSU HENGRUI PHARMACEUTICALS CO., LTD., priority 2021, published 2024)

B1: PD3 anti-TROP2 antibody (antibody, human IgG1, kappa, V domains shown)
VH: EVQLVQSGSELKKPGASVKVSCKASGYTFTNYGMNWVKQAPGQGLKWMGWINTYTGEPTYTQDFKGRFAFSLDTSVSTAYLQISSLKAEDTAVYYCARGGFGSSYWYFDVWGQGTLVTVSS
VL: DIQLTQSPSSLSASVGDRVSITCKASQDVSIAVAWYQQKPGKAPKLLIYSASYRYTGVPDRFSGSGSGTDFTLTISSLQPEDFAVYYCQQHYITPLTFGAGTKVEIKR
B2: TINA antibody (constructed according to WO2015098099A1) (antibody, human IgG1, kappa, V domains shown)
VH: QVQLVQSGAEVKKPGASVKVSCKASGYTFTTAGMQWVRQAPGQGLEWMGWINTHSGVPKYAEDFKGRVTISADTSTSTAYLQLSSLKSEDTAVYYCARSGFGSSYWYFDVWGQGTLVTVSS
VL: DIQMTQSPSSLSASVGDRVTITCKASQDVSTAVAWYQQKPGKAPKLLIYSASYRYTGVPSRFSGSGSGTDFTLTISSLQPEDFAVYYCQQHYITPLTFGQGTKLEIKR
B3: ADC-5 (PD3-58) (antibody, human IgG1, kappa, V domains shown)
VH: EVQLVQSGSELKKPGASVKVSCKASGYTFTNYGMNWVKQAPGQGLKWMGWINTYTGEPTYTQDFKGRFAFSLDTSVSTAYLQISSLKAEDTAVYYCARGGFGSSYWYFDVWGQGTLVTVSS
VL: DIQLTQSPSSLSASVGDRVSITCKASQDVSIAVAWYQQKPGKAPKLLIYSASYRYTGVPDRFSGSGSGTDFTLTISSLQPEDFAVYYCQQHYITPLTFGAGTKVEIKR
modifications: compound 58 (linker-drug) conjugated after TCEP reduction of the antibody; average n=3.88 per antibody (UV-Vis); sites not stated
B4: ADC-4 (TINA-58) (antibody, human IgG1, kappa, V domains shown)
VH: QVQLVQSGAEVKKPGASVKVSCKASGYTFTTAGMQWVRQAPGQGLEWMGWINTHSGVPKYAEDFKGRVTISADTSTSTAYLQLSSLKSEDTAVYYCARSGFGSSYWYFDVWGQGTLVTVSS
VL: DIQMTQSPSSLSASVGDRVTITCKASQDVSTAVAWYQQKPGKAPKLLIYSASYRYTGVPSRFSGSGSGTDFTLTISSLQPEDFAVYYCQQHYITPLTFGQGTKLEIKR
modifications: compound 58 (linker-drug) conjugated after TCEP reduction of the antibody; average n=3.99 per antibody (UV-Vis); sites not stated
B5: ADC-7 (hRS7-9-A) (antibody, human IgG1, kappa, V domains shown)
VH: QVQLQQSGSELKKPGASVKVSCKASGYTFTNYGMNWVKQAPGQGLKWMGWINTYTGEPTYTDDFKGRFAFSLDTSVSTAYLQISSLKADDTAVYFCARGGFGSSYWYFDVWGQGSLVTVSS
VL: DIQLTQSPSSLSASVGDRVSITCKASQDVSIAVAWYQQKPGKAPKLLIYSASYRYTGVPDRFSGSGSGTDFTLTISSLQPEDFAVYYCQQHYITPLTFGAGTKVEIKR
modifications: compound 9-A (linker-drug) conjugated after TCEP reduction of the antibody; average n=3.72 per antibody (UV-Vis); sites not stated
B6: hRS7 (control anti-TROP-2 antibody, constructed according to WO03074566) (antibody, human IgG1, kappa, V domains shown)
VH: QVQLQQSGSELKKPGASVKVSCKASGYTFTNYGMNWVKQAPGQGLKWMGWINTYTGEPTYTDDFKGRFAFSLDTSVSTAYLQISSLKADDTAVYFCARGGFGSSYWYFDVWGQGSLVTVSS
VL: DIQLTQSPSSLSASVGDRVSITCKASQDVSIAVAWYQQKPGKAPKLLIYSASYRYTGVPDRFSGSGSGTDFTLTISSLQPEDFAVYYCQQHYITPLTFGAGTKVEIKR

Columns and labels:
Assay in all cases: cell-based or functional assay
[1] = target: T1, TROP-2 expressed on cells (UniProt P09758 27-323, limits assumed)
T1 sequence (looked up): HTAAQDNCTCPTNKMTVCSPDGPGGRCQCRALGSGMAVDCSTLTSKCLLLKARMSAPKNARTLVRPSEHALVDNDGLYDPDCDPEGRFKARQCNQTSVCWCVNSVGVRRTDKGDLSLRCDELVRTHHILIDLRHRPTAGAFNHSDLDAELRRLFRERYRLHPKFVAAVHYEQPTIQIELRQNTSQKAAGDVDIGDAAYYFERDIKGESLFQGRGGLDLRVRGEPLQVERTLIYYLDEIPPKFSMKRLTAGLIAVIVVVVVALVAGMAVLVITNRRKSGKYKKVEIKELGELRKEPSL

[2] = target: T1, TROP-2 expressed on cells; remark: listed apart in the source
[3] = target: T1, TROP-2 expressed on cells; remark: listed apart in the source

| Binder | EC50, antibody endocytic activity (DT3C cell killing, CTG) [1] [nM] | Emax, antibody endocytic activity (DT3C cell killing, CTG) [1] [%] | EC50, killing activity on Colo205(++) cells [3] [nM] | EC50, killing activity on DMS53(++) cells [3] [nM] | EC50, killing activity on FaDu(+++) cells [3] [nM] | EC50, killing activity on HCC827(+++) cells [3] [nM] | Emax, killing activity on Colo205(++) cells [3] [%] | Emax, killing activity on DMS53(++) cells [3] [%] | Emax, killing activity on FaDu(+++) cells [3] [%] | Emax, killing activity on HCC827(+++) cells [3] [%] | Emax, killing activity on SK-OV-3(+) cells [3] [%] | other results |
| --- | --- | --- | --- | --- | --- | --- | --- | --- | --- | --- | --- | --- |
| B1 | 0.15 | 99.1 |  |  |  |  |  |  |  |  |  |  |
| B2 | 0.18 | 98.7 |  |  |  |  |  |  |  |  |  |  |
| B3 |  |  |  |  |  |  |  |  |  |  |  | EC50, killing activity on Colo205 cells (second parallel assay) [2]: 25.6 nM; EC50, killing activity on DMS53 cells (second parallel assay) [2]: 25.7 nM; EC50, killing activity on FaDu cells (second parallel assay) [2]: 0.14 nM; EC50, killing activity on HCC827 cells (second parallel assay) [2]: 0.13 nM |
| B4 |  |  | 59.8 | 75.6 | 0.53 | 0.27 | 99.7 | 89.8 | 101 | 88.2 | 49.1 |  |
| B5 |  |  | 52.8 | 72.9 | 0.31 | 0.18 | 99.5 | 88.7 | 101 | 89.3 | 66.1 |  |
| B6 | 0.18 | 98.5 |  |  |  |  |  |  |  |  |  |  |
